How the values were obtained:
[1] = system: murine hematopoietic progenitors (lin-); experiment: In vitro differentiation of murine hematopoietic progenitor cells transduced with retroviral constructs; type: cell-based; details: for effect on differentiation of transduced progenitors: compared with control cells
Description: FIG. 5. A heterologous oligomerization domain activates the transforming potential of RAR. (A-B) p53-RAR form oligomers. (A) Nuclear extracts from COS-1 cells transfected with expression vectors for p53-RAR or RAR were incubated with tritiated RA (10 nM), fractionated and analysed as described in FIG. 3A. Note that the low MW peak of RA-binding capacity (coinciding with RAR) in p53-RAR cells derives from expression of wild type RAR, starting from its own ATG-conserved in the p53-RAR expression vector (see below)-. (B) Fractions from gel filtration of in vitro translated, ^35-S labelled p53-RAR were analysed by SDS-PAGE, followed by autoradiography. Note that two products are generated in the reaction: full-length p53-RAR, fractionating in oligomeric complexes, and RAR, starting from the internal ATG site of RAR and fractionating as a monomer. (C-D) Effects of RAR chimeric proteins on differentiation of murine hematopoietic progenitors. Lin-cells were transduced with the indicated retroviral vectors and then sorted by FACS on the basis of their GFP positivity. In the case of ΔCC-PML-RAR, GFP+ cells were sorted in GFP^high or GFP^low expressors. After sorting, cells were either plated in differentiation medium in the absence or in the presence of RA (3 nM or 1 μM) (C), or analysed by Western blot (D). C, control, P-R, PML-RAR, ΔCC-P-R, ΔCC-PML-RAR, G-PR, GFP-PML-RAR, G-ΔCCPR, GFP-ΔCC-PML-RAR, G-p53R, GFP-p53-RAR. As described, RA delays myeloid differentiation of control cells, leading to a maximum 20-30% reduction in the number of Mac1 + cells (Purton et al., 1999). This effect is counter-acted by expression of PML-RAR and by high levels of ΔCC-PML-RAR. […]
The capacity of p53-RAR to block differentiation was evaluated using primary hematopoietic precursors purified from murine bone marrow on the basis of the absence of surface differentiation antigens (lin-see methods). […] After 8-10 days, colonies were pooled and analysed for the expression of myeloid differentiation markers (Mac-1 and GR-1). […]

[2] = system: U937 cells expressing PML-RAR under the control of an inducible promoter; experiment: Differentiation (CD14) of U937 cells with inducible PML-RAR treated with vitamin D and TGFβ; type: cell-based; details: PML-RAR induced, control infection (GFP alone), vitamin D and TGFβ
Text: The cells were either uninduced (ctr column), or induced to express PML-RAR (PML-RAR column). Cells were transduced with retroviral vectors encoding the coiled coil of PML (RBCC) and GFP as a marker, or with retroviral vectors encoding GFP alone as a control (control). […] In cells expressing the coiled coil of PML (gated in the cytofluorimetric analysis based on the positivity for the GFP marker), PML-RAR was unable to block efficiently differentiation (from 90% to 70%). Levels of expression of PML-RAR were unchanged by expressing the coiled coil region of PML.
RAR oligomerization through the coiled coil region of PML is required for its leukemogenic activity, and deletion of the PML coiled coil is sufficient to lead to loss of oncogenic potential (Minucci et al., 2000). Small molecule compounds able to disrupt PML-RAR oligomers would therefore be able to revert the leukemic phenotype.

B1: p53-RAR: RAR fused C-terminally to the tetramerization domain present in p53 (protein)
chain: GEYFTLQIRGRERFEMFRELNEALELKDAQAGMASNSSSCPTPGGGHLNGYPVPPYAFFFPPMLGGLSPPGALTTLQHQLPVSGYSTPSPATIETQSSSSEEIVPSPPSPPPLPRIYKPCFVCQDKSSGYHYGVSACEGCKGFFRRSIQKNMVYTCHRDKNCIINKVTRNRCQYCRLQKCFEVGMSKESVRNDRNKKKKEVPKPECSESYTLTPEVGELIEKVRKAHQETFPALCQLGKYTTNNSSEQRVSLDIDLWDKFSELSTKCIIKTVEFAKQLPGFTTLTIADQITLLKAACLDILILRICTRYTPEQDTMTFSDGLTLNRTQMHNAGFGPLTDLVFAFANQLLPLEMDDAETGLLSAICLICGDRQDLEQPDRVDMLQEPLLEALKVYVRKRRPSRPHMFPKMLMKITDLRSISAKGAERVITLKMEIPGSMPPLIQEMLENSEGLDTLSGQPGGGGRDGGGLAPPPGSCSPSLSPSSNRSSPATHSP
[1]
  effect on differentiation of transduced progenitors: strong decrease in the number of Mac1+ and GR1+ cells

B2: PML-RAR: leukaemia-associated chimeric transcription factor, fusion of PML and RAR (protein)
chain: MEPAPARSPRPQQDPARPQEPTMPPPETPSEGRQPSPSPSPTERAPASEEEFQFLRCQQCQAEAKCPKLLPCLHTLCSGCLEASGMQCPICQAPWPLGADTPALDNVFFESLQRRLSVYRQIVDAQAVCTRCKESADFWCFECEQLLCAKCFEAHQWFLKHEARPLAELRNQSVREFLDGTRKTNNIFCSNPNHRTPTLTSIYCRGCSKPLCCSCALLDSSHSELKCDISAEIQQRQEELDAMTQALQEQDSAFGAVHAQMHAAVGQLGRARAETEELIRERVRQVVAHVRAQERELLEAVDARYQRDYEEMASRLGRLDAVLQRIRTGSALVQRMKCYASDQEVLDMHGFLRQALCRLRQEEPQSLQAAVRTDGFDEFKVRLQDLSSCITQGKDAAVSKKASPEAASTPRDPIDVDLPEEAERVKAQVQALGLAEAQPMAVVQSVPGAHPVPVYAFSIKGPSYGEDVSNTTTAQKRKCSQTQCPRKVIKMESEEGKEARLARSSPEQPRPSTSKAVSPPHLDGPPSPRSPVIGSEVFLPNSNHVASGAGEAIETQSSSSEEIVPSPPSPPPLPRIYKPCFVCQDKSSGYHYGVSACEGCKGFFRRSIQKNMVYTCHRDKNCIINKVTRNRCQYCRLQKCFEVGMSKESVRNDRNKKKKEVPKPECSESYTLTPEVGELIEKVRKAHQETFPALCQLGKYTTNNSSEQRVSLDIDLWDKFSELSTKCIIKTVEFAKQLPGFTTLTIADQITLLKAACLDILILRICTRYTPEQDTMTFSDGLTLNRTQMHNAGFGPLTDLVFAFANQLLPLEMDDAETGLLSAICLICGDRQDLEQPDRVDMLQEPLLEALKVYVRKRRPSRPHMFPKMLMKITDLRSISAKGAERVITLKMEIPGSMPPLIQEMLENSEGLDTLSGQPGGGGRDGGGLAPPPGSCSPSLSPSSNRSSPATHSP
[2]
  differentiated, CD14+ cells: about 30%
[1]; Mac-1, 8-10 days in methylcellulose
  differentiation block: about 50%
[1]
  effect on differentiation of transduced progenitors: strong reduction in their capacity to differentiate
